We go through 1 substance from patent publication US20200150131A1.

In assay [1] the target is CML conjugated to KLH (CML-KLH). Description: direct binding ELISA, CML-KLH coat 1 ug/mL, antibody at 50 ug/mL. On the technique in general: ELISA stands for enzyme-linked immunosorbent assay.
Assay [2] shares this target. Description: direct binding ELISA, CML-KLH coat 1 ug/mL, antibody at 0.07 ug/mL.
For assay [3] the target is unchanged. Nature of the assay: direct binding ELISA, CML-KLH coat 1 ug/mL, antibody at 0.21 ug/mL.
Assay [4] has the same target. Description: direct binding ELISA, CML-KLH coat 1 ug/mL, antibody at 0.62 ug/mL.
For assay [5] the target is unchanged. Description: direct binding ELISA, CML-KLH coat 1 ug/mL, antibody at 1.85 ug/mL.
For assay [6] the target is unchanged. Nature of the assay: direct binding ELISA, CML-KLH coat 1 ug/mL, antibody at 5.56 ug/mL.
For assay [7] the target is unchanged. Description: direct binding ELISA, CML-KLH coat 1 ug/mL, antibody at 16.67 ug/mL.

On to “anti-carboxymethyl lysine (CML) antibody (R&D Systems, MAB3247)”, for which the OD450 in assay [1] is 0.462 OD450; in assay [2] it was 0.086 OD450; in assay [3], 0.075 OD450; in assay [4], 0.083 OD450; in assay [5], 0.092 OD450; in assay [6], 0.165 OD450. Further, the OD450 in assay [7] was found to be 0.312 OD450.
